# Test results published in patent US20150361454.
# Molecular target: Prochlorococcus marinus MED4 aldehyde decarbonylase (MED4_ADC), wild type
protein,measurement,value
"Prochlorococcus marinus MED4 acyl-ACP reductase (MED4_AAR), wild type (protein) MAFGLIGHSTSFEDAKRKASLLGFDHIADGDLDVWCTAPPQLVENVEVKSAIGISIEGSYIDSCFVPEMLSRFKTARRKVLNAMELAQKKGINITALGGFTSIIFENFNLLQHKQIRNTSLEWERFTTGNTHTAWVICRQLEMNAPKIGIDLKSATVAVVGATGDIGSAVCRWLINKTGIGELLLVARQKEPLDSLQKELDGGTIKNLDEALPEADIVVWVASMPKTMEIDANNLKQPCLMIDGGYPKNLDEKFQGNNIHVVKGGIVRFFNDIGWNMMELAEMQNPQREMFACFAEAMILEFEKCHTNFSWGRNNISLEKMEFIGAASVKHGFSAIGLDKHPKVLAV",products detected on coexpression in E. coli (AAR catalytic activity),"when only MED4_AAR is expressed in E. coli no products are detected, and when MED4_AAR and ADC are coexpressed in E. coli the only products detected are alkanes"
